{
  "source": "paper PMC9482650",
  "about": "“Quantitative fragmentomics allow affinity mapping of interactomes” (Nature Communications, 2022)",
  "binders": {"B1": {"name": "SLC4A7, Q9Y6M7 (peptide)", "chain": "KKYVDAETSL"}, "B2": {"name": "HPV30-E6, P36809 (peptide)", "chain": "RHTTSTETAV"}, "B3": {"name": "ATP2B4, P23634 (peptide)", "chain": "SSLQSLETSV"}},
  "test_in_all_cases": "holdup assay",
  "set-up_in_all_cases": "key: below the threshold = too weak to quantify, mostly under pKd 3.1 to 4",
  "conditions_in_all_cases": "plain residues with an end cap or a label only (N-terminal biotin on a linker: ttds)",
  "key": {"[1]": {"molecular_target": "NHERF2_2, Q15599", "sequence (Q15599 142-238)": "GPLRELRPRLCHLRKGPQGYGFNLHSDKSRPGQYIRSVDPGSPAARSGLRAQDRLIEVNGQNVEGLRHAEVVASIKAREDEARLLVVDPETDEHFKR"}, "[2]": {"molecular_target": "T1, MPP2, Q14168", "T1 sequence (Q14168 180-250, limits assumed, looked up)": "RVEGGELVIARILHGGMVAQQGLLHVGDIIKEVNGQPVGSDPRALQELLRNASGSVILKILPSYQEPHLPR"}, "[3]": {"molecular_target": "FRMPD3, Q5JV73", "sequence (Q5JV73 12-100)": "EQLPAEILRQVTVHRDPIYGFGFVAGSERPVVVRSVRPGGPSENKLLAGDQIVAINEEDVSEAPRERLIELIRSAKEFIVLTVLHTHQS"}, "[4]": {"molecular_target": "T2, DFNB31_1, Q9P202", "T2 sequence (Q9P202 135-233, limits assumed, looked up)": "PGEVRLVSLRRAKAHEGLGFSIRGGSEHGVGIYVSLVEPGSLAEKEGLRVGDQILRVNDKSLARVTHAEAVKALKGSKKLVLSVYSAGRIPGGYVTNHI"}, "[5]": {"molecular_target": "SCRIB_2, Q14160", "sequence (Q14160 857-960)": "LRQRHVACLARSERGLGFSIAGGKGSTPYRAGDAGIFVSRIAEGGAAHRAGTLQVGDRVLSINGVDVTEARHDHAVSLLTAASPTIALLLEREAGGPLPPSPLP"}, "[6]": {"molecular_target": "T3, DLG3_2, Q92796", "T3 sequence (Q92796 221-321, limits assumed, looked up)": "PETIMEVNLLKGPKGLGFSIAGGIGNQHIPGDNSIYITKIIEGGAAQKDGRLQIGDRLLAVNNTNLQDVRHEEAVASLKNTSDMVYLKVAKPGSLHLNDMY"}, "[7]": {"molecular_target": "DLG2_2, Q15700", "sequence (Q15700 189-283)": "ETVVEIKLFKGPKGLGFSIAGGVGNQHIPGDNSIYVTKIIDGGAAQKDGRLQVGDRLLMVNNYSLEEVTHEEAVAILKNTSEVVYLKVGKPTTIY"}, "[8]": {"molecular_target": "T4, SYNJ2BP, P57105", "T4 sequence (P57105 8-110, limits assumed, looked up)": "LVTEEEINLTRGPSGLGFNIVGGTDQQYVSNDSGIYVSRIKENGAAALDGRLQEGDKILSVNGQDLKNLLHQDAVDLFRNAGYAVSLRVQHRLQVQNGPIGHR"}, "[9]": {"molecular_target": "T5, PTPN13_1, Q12923", "T5 sequence (Q12923 1088-1188, limits assumed, looked up)": "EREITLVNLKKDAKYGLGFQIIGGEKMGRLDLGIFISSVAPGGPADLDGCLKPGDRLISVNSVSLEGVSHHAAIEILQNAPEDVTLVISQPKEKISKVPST"}, "[10]": {"molecular_target": "SCRIB_1, Q14160", "sequence (Q14160 718-814)": "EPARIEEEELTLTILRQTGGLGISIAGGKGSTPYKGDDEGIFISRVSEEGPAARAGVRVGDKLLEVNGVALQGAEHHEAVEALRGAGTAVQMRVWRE"}, "[11]": {"molecular_target": "T6, SNTG2, Q9NY99", "T6 sequence (Q9NY99 68-166, limits assumed, looked up)": "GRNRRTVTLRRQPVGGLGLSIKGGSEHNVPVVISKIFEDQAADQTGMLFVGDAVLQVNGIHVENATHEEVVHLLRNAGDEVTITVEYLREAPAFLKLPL"}, "[12]": {"molecular_target": "NHERF4_2, Q86UT5", "sequence (Q86UT5 220-308)": "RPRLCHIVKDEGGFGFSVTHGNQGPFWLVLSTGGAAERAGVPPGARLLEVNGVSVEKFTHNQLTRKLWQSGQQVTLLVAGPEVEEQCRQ"}, "[13]": {"molecular_target": "SCRIB_3, Q14160", "sequence (Q14160 999-1103)": "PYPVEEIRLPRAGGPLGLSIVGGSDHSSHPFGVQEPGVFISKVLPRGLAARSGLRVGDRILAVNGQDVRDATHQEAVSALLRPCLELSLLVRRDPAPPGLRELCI"}, "[14]": {"molecular_target": "T7, TJP3_3, O95049", "T7 sequence (O95049 375-456, limits assumed, looked up)": "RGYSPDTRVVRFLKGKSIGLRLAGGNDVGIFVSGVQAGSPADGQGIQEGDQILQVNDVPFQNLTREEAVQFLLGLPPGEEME"}, "[15]": {"molecular_target": "LNX1_2, Q8TBB1", "sequence (Q8TBB1 371-470)": "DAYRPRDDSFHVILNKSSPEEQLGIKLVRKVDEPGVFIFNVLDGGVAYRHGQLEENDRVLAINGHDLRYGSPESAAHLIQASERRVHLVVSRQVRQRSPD"}, "[16]": {"molecular_target": "T8, ARHGAP21, Q5T5U3", "T8 sequence (Q5T5U3 45-169, limits assumed, looked up)": "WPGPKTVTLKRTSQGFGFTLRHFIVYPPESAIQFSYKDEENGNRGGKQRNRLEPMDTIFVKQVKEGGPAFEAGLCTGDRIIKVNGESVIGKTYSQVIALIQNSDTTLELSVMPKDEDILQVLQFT"}, "[17]": {"molecular_target": "T9, SIPA1L2, Q9P2F8", "T9 sequence (Q9P2F8 945-1036, limits assumed, looked up)": "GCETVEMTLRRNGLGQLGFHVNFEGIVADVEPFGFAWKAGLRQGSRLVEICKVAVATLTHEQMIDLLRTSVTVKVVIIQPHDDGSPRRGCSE"}, "[18]": {"molecular_target": "T10, SHANK1, Q9Y566", "T10 sequence (Q9Y566 658-767, limits assumed, looked up)": "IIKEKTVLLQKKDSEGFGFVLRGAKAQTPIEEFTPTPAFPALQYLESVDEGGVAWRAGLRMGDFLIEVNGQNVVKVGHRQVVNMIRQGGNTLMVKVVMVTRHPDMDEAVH"}, "[19]": {"molecular_target": "T11, LRRC7, Q96NW7", "T11 sequence (Q96NW7 1440-1537, limits assumed, looked up)": "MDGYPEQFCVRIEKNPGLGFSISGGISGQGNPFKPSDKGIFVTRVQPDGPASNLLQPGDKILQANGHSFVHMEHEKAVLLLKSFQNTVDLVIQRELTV"}, "[20]": {"molecular_target": "GRASP, Q7Z6J2", "sequence (Q7Z6J2 96-193)": "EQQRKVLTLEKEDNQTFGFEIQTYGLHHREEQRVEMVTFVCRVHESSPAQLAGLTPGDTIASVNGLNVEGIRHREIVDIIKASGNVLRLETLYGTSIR"}, "[21]": {"molecular_target": "PTPN3, P26045", "sequence (P26045 505-587)": "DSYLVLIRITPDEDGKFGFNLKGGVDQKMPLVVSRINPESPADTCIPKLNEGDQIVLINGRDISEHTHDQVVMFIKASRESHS"}, "[22]": {"molecular_target": "AHNAK1, Q09666", "sequence (Q09666 4-100)": "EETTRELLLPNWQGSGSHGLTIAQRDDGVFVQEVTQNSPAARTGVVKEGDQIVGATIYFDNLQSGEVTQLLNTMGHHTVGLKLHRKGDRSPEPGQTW"}, "[23]": {"molecular_target": "Inadl_6, Q8NI35", "sequence (Q8NI35 1058-1167)": "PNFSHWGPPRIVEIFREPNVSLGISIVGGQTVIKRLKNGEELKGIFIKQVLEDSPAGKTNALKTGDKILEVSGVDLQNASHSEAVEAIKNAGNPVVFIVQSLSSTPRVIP"}, "[24]": {"molecular_target": "T12, DLG3_3, Q92796", "T12 sequence (Q92796 374-475, limits assumed, looked up)": "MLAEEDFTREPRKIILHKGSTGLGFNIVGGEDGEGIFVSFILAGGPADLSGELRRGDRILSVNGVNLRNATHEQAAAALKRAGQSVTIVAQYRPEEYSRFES"}, "[25]": {"molecular_target": "PDZRN4_1, Q6ZMN7", "sequence (Q6ZMN7 213-318)": "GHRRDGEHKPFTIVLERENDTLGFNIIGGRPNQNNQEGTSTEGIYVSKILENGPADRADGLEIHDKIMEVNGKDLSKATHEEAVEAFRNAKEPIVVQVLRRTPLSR"}, "[26]": {"molecular_target": "DLG4_2, P78352", "sequence (P78352 155-259)": "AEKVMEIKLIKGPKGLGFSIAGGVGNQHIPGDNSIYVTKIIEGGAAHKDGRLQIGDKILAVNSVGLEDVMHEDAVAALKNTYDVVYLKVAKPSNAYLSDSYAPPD"}},
  "data": [
    {"binder": "B1", "values": [
      {"measurement": "pKd", "setting": "[1]", "result": 4.62},
      {"measurement": "pKd", "setting": "[2]", "result": "below the threshold"},
      {"measurement": "pKd", "setting": "[3]", "result": 3.58},
      {"measurement": "pKd", "setting": "[4]", "result": 3.98},
      {"measurement": "pKd", "setting": "[5]", "result": 3.77},
      {"measurement": "pKd", "setting": "[6]", "result": 3.91},
      {"measurement": "pKd", "setting": "[7]", "result": "below the threshold"},
      {"measurement": "pKd", "setting": "[8]", "result": 4.28},
      {"measurement": "pKd", "setting": "[9]", "result": "below the threshold"},
      {"measurement": "pKd", "setting": "[10]", "result": 5.54},
      {"measurement": "pKd", "setting": "[11]", "result": 4.33},
      {"measurement": "pKd", "setting": "[12]", "result": "below the threshold"},
      {"measurement": "pKd", "setting": "[13]", "result": 5.09},
      {"measurement": "pKd", "setting": "[14]", "result": "below the threshold"},
      {"measurement": "pKd", "setting": "[15]", "result": "below the threshold"},
      {"measurement": "pKd", "setting": "[16]", "result": "below the threshold"},
      {"measurement": "pKd", "setting": "[17]", "result": "below the threshold"},
      {"measurement": "pKd", "setting": "[18]", "result": 4.67},
      {"measurement": "pKd", "setting": "[19]", "result": "below the threshold"},
      {"measurement": "pKd", "setting": "[20]", "result": 3.73},
      {"measurement": "pKd", "setting": "[21]", "result": 5.04},
      {"measurement": "pKd", "setting": "[22]", "result": "below the threshold"},
      {"measurement": "pKd", "setting": "[23]", "result": 3.71},
      {"measurement": "pKd", "setting": "[24]", "result": 3.79},
      {"measurement": "pKd", "setting": "[25]", "result": 4.8},
      {"measurement": "pKd", "setting": "[26]", "result": "below the threshold"}
    ]},
    {"binder": "B2", "values": [
      {"measurement": "pKd", "setting": "[1]", "result": "below the threshold"},
      {"measurement": "pKd", "setting": "[2]", "result": "below the threshold"},
      {"measurement": "pKd", "setting": "[3]", "result": 3.76},
      {"measurement": "pKd", "setting": "[4]", "result": 4.27},
      {"measurement": "pKd", "setting": "[5]", "result": 5.11},
      {"measurement": "pKd", "setting": "[6]", "result": 5.41},
      {"measurement": "pKd", "setting": "[7]", "result": 5.19},
      {"measurement": "pKd", "setting": "[8]", "result": 5.36},
      {"measurement": "pKd", "setting": "[9]", "result": "below the threshold"},
      {"measurement": "pKd", "setting": "[10]", "result": 4.76},
      {"measurement": "pKd", "setting": "[11]", "result": 4.67},
      {"measurement": "pKd", "setting": "[12]", "result": "below the threshold"},
      {"measurement": "pKd", "setting": "[13]", "result": 5.02},
      {"measurement": "pKd", "setting": "[14]", "result": "below the threshold"},
      {"measurement": "pKd", "setting": "[15]", "result": 3.67},
      {"measurement": "pKd", "setting": "[16]", "result": "below the threshold"},
      {"measurement": "pKd", "setting": "[17]", "result": "below the threshold"},
      {"measurement": "pKd", "setting": "[18]", "result": 3.73},
      {"measurement": "pKd", "setting": "[19]", "result": "below the threshold"},
      {"measurement": "pKd", "setting": "[20]", "result": 3.96},
      {"measurement": "pKd", "setting": "[21]", "result": 5.13},
      {"measurement": "pKd", "setting": "[22]", "result": 3.72},
      {"measurement": "pKd", "setting": "[23]", "result": "below the threshold"},
      {"measurement": "pKd", "setting": "[24]", "result": 4.66},
      {"measurement": "pKd", "setting": "[25]", "result": 4.53},
      {"measurement": "pKd", "setting": "[26]", "result": 5.45}
    ]},
    {"binder": "B3", "values": [
      {"measurement": "pKd", "setting": "[1]", "result": 3.84},
      {"measurement": "pKd", "setting": "[2]", "result": "below the threshold"},
      {"measurement": "pKd", "setting": "[3]", "result": "below the threshold"},
      {"measurement": "pKd", "setting": "[4]", "result": 4.17},
      {"measurement": "pKd", "setting": "[5]", "result": 4.9},
      {"measurement": "pKd", "setting": "[6]", "result": 5.2},
      {"measurement": "pKd", "setting": "[7]", "result": 5.08},
      {"measurement": "pKd", "setting": "[8]", "result": 5.66},
      {"measurement": "pKd", "setting": "[9]", "result": 3.5},
      {"measurement": "pKd", "setting": "[10]", "result": 5.03},
      {"measurement": "pKd", "setting": "[11]", "result": 4.89},
      {"measurement": "pKd", "setting": "[12]", "result": "below the threshold"},
      {"measurement": "pKd", "setting": "[13]", "result": 5.11},
      {"measurement": "pKd", "setting": "[14]", "result": 3.71},
      {"measurement": "pKd", "setting": "[15]", "result": 3.7},
      {"measurement": "pKd", "setting": "[16]", "result": "below the threshold"},
      {"measurement": "pKd", "setting": "[17]", "result": "below the threshold"},
      {"measurement": "pKd", "setting": "[18]", "result": 3.94},
      {"measurement": "pKd", "setting": "[19]", "result": "below the threshold"},
      {"measurement": "pKd", "setting": "[20]", "result": 3.6},
      {"measurement": "pKd", "setting": "[21]", "result": 5.12},
      {"measurement": "pKd", "setting": "[22]", "result": "below the threshold"},
      {"measurement": "pKd", "setting": "[23]", "result": "below the threshold"},
      {"measurement": "pKd", "setting": "[24]", "result": 4.73},
      {"measurement": "pKd", "setting": "[25]", "result": 4.79},
      {"measurement": "pKd", "setting": "[26]", "result": 5.18}
    ]}
  ]
}
